Data reported in patent publication US20080063623A1 (INTEVERT INTERNATIONAL B V, published 2008).

Target: the molecule itself
Assay: transfection of COS-7 cells, non-denaturing Western blot of supernatants
Procedure: COS-7 cells were transfected with 1.5 μg of each cDNA construct using the Invitrogen Life Technologies Lipofectamine™ reagent (as described by the manufacturer) and cultured in 3-cm dishes with DMEM (without FCS and penicillin/streptomycin). After 8 h, transfected cells were washed and cultured in DMEM with penicillin/streptomycin and 10% FCS. After 72 h incubation at 37° C./5% C0₂ the cell culture supernatants were harvested and centrifuged at 13,000 rpm for 10 min at 4° C. to remove cell debris. The supernatants were analyzed via Western blotting and used immediately or stored at −70° C.
Cell culture supernatants from transfected COS-7 cells were size fractionated using 4-12% Nu-PAGE™ (Invitrogen) and blotted onto nitrocellulose filters (Schleicher & Schuell). Western blots were blocked in 3% skimmed milk (MPBS) in PBS, and subsequently incubated with a polyclonal antibody that was raised against a FeIL-12 p40 peptide diluted 1:300 in MPBS. Blocking and antibody incubation were each performed for 1 h at room temperature. After extensive washing (3 times 5 min), blots were incubated with alkaline peroxidase (AP)-conjugated goat anti-rabbit IgG antibodies (Sanbio) diluted 1:1000 in MPBS for 1 h at room temperature. After washing (3 times 5 min), bound AP-labeled secondary antibodies were visualized via staining. […]

B1: chicken IL-12 p40 subunit (ChIL-12 p40) (ligand)
chain: QWKLRENVYVIESEWNDETPAKKVKLTCDTSDEALPVYWKKGTELKGTGKTLTTEVKEFPDAGNYTCLSAKTHEIISYSFFLITKVDSNGQMIRSILKSYKEPSKTFLKCEAKNYSGIFTCSWMTENESPSVKFTIRSLKGSQGDVTCSSPVARTDKSVTEYTAQCQKENYCPFAEEHQPTEMFLEVIDEVEYENYTSSFFIRDIIKPDPPQCQYASTNGTVTWTYPKTWSTPKSYFPLTFRVKVESTKKYKSKVYDADEQSIQIPKTGPKDKISVQARDRYYNSSWSEWSTLCR
notes: also called chicken p40; clone pND89
- binding result: binds
